In publication doi:10.1101/2021.10.17.464694 (bioRxiv, 2021):

Molecular target: K63-linked diubiquitin (UniProt P0CG48 1-76; P0CG48 1-76, K48R | K63R | D77 extension)
Test: ITC

B1: full-length ASCC2 (natural protein)
chain: MPALPLDQLQITHKDPKTGKLRTSPALHPEQKADRYFVLYKPPPKDNIPALVEEYLERATFVANDLDWLLALPHDKFWCQVIFDETLQKCLDSYLRYVPRKFDEGVASAPEVVDMQKRLHRSVFLTFLRMSTHKESKDHFISPSAFGEILYNNFLFDIPKILDLCVLFGKGNSPLLQKMIGNIFTQQPSYYSDLDETLPTILQVFSNILQHCGLQGDGANTTPQKLEERGRLTPSDMPLLELKDIVLYLCDTCTTLWAFLDIFPLACQTFQKHDFCYRLASFYEAAIPEMESAIKKRRLEDSKLLGDLWQRLSHSRKKLMEIFHIILNQICLLPILESSCDNIQGFIEEFLQIFSSLLQEKRFLRDYDALFPVAEDISLLQQASSVLDETRTAYILQAVESAWEGVDRRKATDAKDPSVIEEPNGEPNGVTVTAEAVSQASSHPENSEEEECMGAAAAVGPAMCGVELDSLISQVKDLLPDLGEGFILACLEYYHYDPEQVINNILEERLAPTLSQLDRNLDREMKPDPTPLLTSRHNVFQNDEFDVFSRDSVDLSRVHKGKSTRKEENTRSLLNDKRAVAAQRQRYEQYSVVVEEVPLQPGESLPYHSVYYEDEYDDTYDGNQVGANDADSDDELISRRPFTIPQVLRTKVPREGQEEDDDDEEDDADEEAPKPDHFVQDPAVLREKAEARRMAFLAKKGYRHDSSTAVAGSPRGHGQSRETTQERRKKEANKATRANHNRRTMADRKRSKGMIPS
Q: With B1 as the binder, how does the “stoichiometry N” value read?
A: 1 ASCC2 per K63Ub2
